Laboratory results from the DeepSol protein solubility set.

Test: soluble on expression in E. coli; label from the status in PepcDB or PDB records

| Sequence | soluble on expression in E. coli |
| --- | --- |
| MACLTDLVNLNLSDTTEKIIAEYIWIGGSGMDLRSKARTLPGPVTDPSKLPKWNYDGSSTGQAPGEDSEVILYPQAIFKDPFRRGNNILVMCDCYTPAGEPIPTNKRYSAAKIFSSPEVAAEEPWYGIEQEYTLLQKDTNWPLGWPIGGFPGPQGPYYCGIGAEKSFGRDIVDAHYKACLYAGINISGINGEVMPGQWEFQVGPSVGISSGDQVWVARYILERITEIAGVVVTFDPKPIPGDWNGAGAHTNYSTESMRKEGGYEVIKAAIEKLKLRHKEHIAAYGEGNERRLTGRHETADINTFSWGVANRGASVRVGRETEQNGKGYFEDRRPASNMDPYVVTSMIAETTIVWKP | soluble |
| MADDFAYLNARVRVRRGTLLKESFFQEALDLSFADFLRLLSETVYGGELAGQGLPDVDRAVLRTQAKLVGDLPRLVTGEAREAVRLLLLRNDLHNLQALLRAKATGRPFEEVLLLPGTLREEVWRQAYEAQDPAGMAQVLAVPGHPLARALRAVLRETQDLARVEALLAKRFFEDVAKAAKGLDQPALRDYLALEVDAENLRTAFKLQGSGLAPDAFFLKGGRFVDRVRFARLMEGDYAVLDELSGTPFSGLSGVRDLKALERGLRCVLLKEAKKGVQDPLGVGLVLAYVKEREWEAVRLRLLARRAYFGLPRAQVEEEVVCP | soluble |
| MADEEDPCGGGKKNPRKRCQPDVDPEEDSEPDLDGPQPPFRGRSSTVTDAVRQTAMEFRKRARSDEFRPAQQPEQSVVAVKPPTTSAPVTPFPANLPVSEQLEDLSLLPGVRRVRPLPRSRYPVANDPFDKFSAYSGPGSSQQAVPRTISKISEESGSGSGSGSGNDSSGSSGPTRMSGQVPSTSGPPPPRPPPAGHQNPFLGNQPSTSNTSEPSTSTQGVSPSRTSKISKKKAHQAGLHSKGSSEDSTDSGESKPSSKQPPKKSPKSNKNDPNAPGPSRRRDDDDDGVQGGSSEGSSESL | soluble |
| MADETIAIVDADATAETRSLLSYLDGVRGEGILFGHQHTTSFGLTTGPTDGTTSDVKNVTGDFPAVFGWDTLIIEGNERPGLAENTRDENIALFADYIRKADAIGGVNTVSAHVENFVTGGSFYDTSGDTLRAVLPGGSHHAELVAYLDDIAELADASRRDDGTLIPIVFRPWHENAGSWFWWGAAYGSPGEYQELYRFTVEYLRDVKGVSNFLYAWGPGGGFGGNRDVYLRTYPGDAFVDVLGLDTYDSTGSDAFLAGLVADLRMIAEIADEKGKVSAFTEFGVSGGVGTNGSSPAQWFTKVLAAIKADPVASRNAYMETWRNADAGQHFVPVPGDALLEDFQAYAADPFTLFASEVTGAFDRTVAAAPAQPVVHIASPADGARVASAPTTVRVRVGGTDVQSVTVEVAQGGTVVDTLDLAYDGALWWTAPWSPTSAQLDNSTYTVTATATTAAGTLDVTNEVAAALEHHHHHH | soluble |
| MADETPKVKTEPAAEVKSPLDEVKEIRKEAELTQTGSDEKKTTDPEFITVQDPNGDEPIELPTVDGVVLMTTLQASFPGATGLKYKNPKTGANRAVQVDPSGLKLIAPADGWENKTFFVIVAPQSERVRALSSADATSAKRRKVGSSDDSDSDDGRDGRSGRKRAVERDSQPVDLIVLGVDFKTTDECFQKYFEDIGTVVFCEIKRKSDGNSKGFGFVRMSSVGEQNKVLAIPQHMIDGRRCDVKVPDGRDKQGRPSISRIFVGRLTDKVDEHQLRKVFGDEAKSYIETAVVTDVFIPKPFRGFAFVTLSSAEAAERIVSKGSLTVNGLSVGLSIAQPREENNQSVGPDYGLPAGYRNRRERDRPDRRPIQNEAPLPMPFVRPPQDYSYRQQNSPLERRYWAPGDSRGPGW | not soluble |
| MADFLTRFIREELSWRGYEKAIVAVSGGVDSATTLALAVRALGAERVHALFLPHRESSPTSREHAYLVAETFGVALEEVDITPMVEGYAALTPDLTPHRKGNVMARARMIVLFDKSEAYRALPLGTGNKTERLFGYFTWHGDDTPPVNPLGDLYKTQVWRLAEHLGVPEEVVRKPPTADLIPGQTDEADLGLRYLRADVILEHYLKGYSDQYILGLGFTEEELRRVKERVNRTHWKRALPTVALLSSTAIGEFYLRPLDYRP | soluble |
| MADIYPLGKTHTEELNEIIVESAKEIAEPDTTMIQKLIDEHNPEPLLKGVRYYMCENDIEKKRRTYYDAAGQQLVDDTKTNNRTSHAWHKLFVDQKTQYLVGEPVTFTSDNKTLLEYVNELADDDFDDILNETVKNMSNKGIEYWHPFVDEEGEFDYVIFPAEEMIVVYKDNTRRDILFALRYYSYKGIMGEETQKAELYTDTHVYYYEKIDGVYQMDYSYGENNPRPHMTKGGQAIGWGRVPIIPFKNNEEMVSDLKFYKDLIDNYDSITSSTMDSFSDFQQIVYVLKNYDGENPKEFTANLRYHSVIKVSGDGGVDTLRAEIPVDSAAKELERIQDELYKSAQAVDNSPETIGGGATGPALEKLYALLDLKANMAERKIRAGLRLFFWFFAEYLRNTGKGDFNPDKELTMTFTRTRIQNDSEIVQSLVQGVTGGIMSKETAVARNPFVQDPEEELARIEEEMNQYAEMQGNLLDDEGGDDDLEEDDPNAGAAESGGAGQVS | soluble |
| MADKSSRSLILYGDGLARFVDPSNTNIHSLASVATCGFLSLPNAPPETENERIVREFSHLLDASEAYSIASGLKPKGNGNDISTLAERFMGLKAALVTDSSTLTSFGKLIGLDVLQLSEICQESDSFPSDATSSKLLKLLGFEGGKCLDVNLYDLVFVHFGVDEYNNGNNMGILDSLIGSIMGMAQPGSEILSRLHLSVVLSYGSVTDKDVSVFPIKTPQEDINPAFIGLVPRQSYTMRGEKTRDDVRHYCPMLVAQWQHGVTRKDLVDTLSFEALKKLCGNLVIPADRFIHEVAFKLWKAPKYGA | soluble |
| MADNINESEIIERLNSAPSVRGFFIATVDVFNESIDGLIQRIFRKDNFAVQSVVGPLLQDSGPLGDLSVRLKLLFGLGVLPDDIYHDIEDIIKLKNHLNSDASDYEFTDPNILEPIKKLHLVKKMGMVQLEVNEPDDDIDLEFYQLQLQRQQQIIKSGLSLAIVEICNELGKDSPF | not soluble |
| MADPQGFIKYSRREPAHRPVPLRLMDHSEVYEKAPAGQIEEQAARCMDCGVPFCHEGCPLGNIIPEWNDLVRQGRWKEAYDRLHATNNFPEFTGRLCPAPCEGACVLGINDDSVTIKNVELEIVEKAFREGWVQPVIPSMSTGLSVAVVGSGPAGLAAAQQLTRAGHSVTVFERDDRLGGLMRYGVPEYKMENRWIDRRIEQMEAEGTTFQVGTSPRAAELALFDAILLATGTPVARELSVPGHDLNGIHAAMDYLTAQNRINEGDGEVSPINAKGKKVVIIGGGDTGTDCFGTALRQGAESVTQFDIRPRAPFQRADSTPWPMYPNLFRTATAHEEGEYIITGDESADEIAALGLAERAAGSTLGERKFAVNTVEFHGNNGHVTGLTGNQIRVVNGKREPIEGTEFPFEADLVLVALGFTGAEQGGLAHELGVGFDDRGRILRDSEYRSPTNSRVYIAGDNGRGQSLIVWAIAEGRACAAAIDADLMGETALPVAVAPQDVPLAVLEHHHHHH | not soluble |
| MADPTFAEHVATTNSRLASLRANLIDVSTFPEACSELTKWCQDQRAFTAHFEDNLMMALEAAMDYGTRENYDYMLTHGLVGACFTHRKHLSKPAATRIGRWYEQMRRLKKNGGKRKRAPPKPKDPALQASSQPTGTLPVLTSPSCPQNGQQLPTENNNFMFSPNSSDGLVLVIFSSSINFSLKIRVNAKKRKF | not soluble |
| MADPWQECMDYAVTLAGQAGEVVREALKNEMNIMVKSSPADLVTATDQKVEKMLITSIKEKYPSHSFIGEESVAAGEKSILTDNPTWIIDPIDGTTNFVHGFPFVAVSIGFVVNKKMEFGIVYSCLEDKMYTGRKGKGAFCNGQKLQVSHQEDITKSLLVTELGSSRTPETVRIILSNIERLLCLPIHGIRGVGTAALNMCLVAAGAADAYYEMGIHCWDVAGAGIIVTEAGGVLLDVTGGPFDLMSRRVIASSNKTLAERIAKEIQIIPLQRDDED | soluble |
| MADQKEASEAAKNREIKISSSDDEIFLVPRNVIRLSNTLNTLLVDLGLDDDEGTNAEPIPVQNVTASILKKVINWCTKHQSDPIPTEDSEKKTDGSIQDWDKKFLDIDQGTLFELILAANYLDIKGLLDVACQSVANMIKGKSPDEIRRAFNIKDDFTAEEREQIRKENAWCDD | soluble |
